Key:
Assay in all cases: ELISA, lysate on plate-bound antigen
[1] = target: T1, recombinant biotinylated PD-L1 (rhPD-L1/Fc Chimera, R&D Systems 156-B7) (human, UniProt Q9NZQ7 19-238, biotinylated (sites not given))
T1 construct: Bought Fc chimera; also called human PD-L1
Protocol: Streptavidin-coated Maxisorp plates (Nunc catalog 436110) were blocked for 1 h in Starting Block T20 (Pierce) and then coated with biotinylated PD-L1 (using same antigen as in panning) or negative controls (an unrelated Fc-fused recombinant protein and human serum albumin) for 1 h. Plates were rinsed with TBST and diluted lysate was applied to plates for 1 h. Following additional rinses, wells were treated with HRP-conjugated anti-FN3 domain antibody (PAB25) for 1 h and then assayed with POD (Roche catalog 11582950001).

[2] = target: unrelated Fc-fused recombinant protein
[3] = target: human serum albumin (human) (UniProt P02768)
Sequence of human serum albumin (human) (P02768 25-609 limits assumed): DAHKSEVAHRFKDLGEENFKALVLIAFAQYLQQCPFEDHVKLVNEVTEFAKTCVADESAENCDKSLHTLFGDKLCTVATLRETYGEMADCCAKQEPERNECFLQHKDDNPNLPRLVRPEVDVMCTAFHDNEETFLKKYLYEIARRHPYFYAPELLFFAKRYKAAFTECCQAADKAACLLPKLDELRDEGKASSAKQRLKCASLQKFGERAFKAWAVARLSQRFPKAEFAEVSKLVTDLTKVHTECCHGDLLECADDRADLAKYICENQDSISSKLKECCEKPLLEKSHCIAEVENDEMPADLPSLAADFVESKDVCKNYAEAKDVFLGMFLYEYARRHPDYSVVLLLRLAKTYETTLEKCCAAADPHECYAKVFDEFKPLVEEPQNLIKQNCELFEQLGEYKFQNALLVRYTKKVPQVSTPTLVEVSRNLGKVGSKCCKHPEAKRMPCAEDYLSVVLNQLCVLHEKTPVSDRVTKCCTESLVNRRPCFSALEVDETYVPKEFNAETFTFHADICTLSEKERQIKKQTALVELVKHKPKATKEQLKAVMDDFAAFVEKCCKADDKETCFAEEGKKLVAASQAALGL

T1 sequence (Q9NZQ7 19-238, change not shown): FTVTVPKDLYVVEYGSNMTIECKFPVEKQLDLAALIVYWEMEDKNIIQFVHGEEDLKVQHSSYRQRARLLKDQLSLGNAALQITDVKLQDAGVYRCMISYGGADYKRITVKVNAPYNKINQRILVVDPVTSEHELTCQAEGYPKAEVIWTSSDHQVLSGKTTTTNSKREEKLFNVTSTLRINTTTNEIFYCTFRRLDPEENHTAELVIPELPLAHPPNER

Binder	ELISA PD-L1 Fc (RSU) [1] [RSU]	ELISA Fc Control (RSU) [2] [RSU]	ELISA HSA (RSU) [3] [RSU]
ISOP194BR9P1A5 (designed binder, not shown: small tags and cut ends, FN3 domain; E. coli lysate in the ELISA) LPAPKNLVVSRVTEDSARLSWFNADEEYFDSFLIQYQESEKVGEAIVLTVPGSERSYDLTGLKPGTEYTVSIYGVYQRGYHNWFSNPLSAIFTT	3.18e+06	800	1280
ISOP194BR9P1C8 (designed binder, not shown: small tags and cut ends, FN3 domain; E. coli lysate in the ELISA) LPAPKNLVVSRVTEDSARLSWYFAGELWFDSFLIQYQESEKVGEAIVLTVPGSERSYDLTGLKPGTEYTVSIYGVYQRGYHNWFSNPLSAIFTT	6.11e+06	640	1280
ISOP121BR5P1D11 (designed binder, not shown: small tags and cut ends, FN3 domain; E. coli lysate in the ELISA) LPAPKNLVVSRVTEDSARLSWFNADEEYFDSFLIQYQESEKVGEAIVLTVPGSERSYDLTGLKPGTEYTVSIYGVYVRAVRFVSSNPLSAIFTT	2.44e+06	800	1120
ISOP121HR5P1G9 (designed binder, not shown: small tags and cut ends, FN3 domain; E. coli lysate in the ELISA) LPAPKNLVVSRVTEDSARLSWTAPDAAFDSFPINYGERATKGEAINLYVPGSERSYDLTGLKPGTEYWVLIGGVKGGLKSSPLWAWFTT	17800	880	1760
ISOP121GR5P1B4 (designed binder, not shown: small tags and cut ends, FN3 domain; E. coli lysate in the ELISA) LPAPKNLIVSRVTEDSARLSWTAPDAAFDSFPINYGERATKGEAINLYVPGSERSYDLTGLKPGTEYWVLIGGVKGGLKSSPLWAWFTT	16200	800	560
ISOP194GR9P1C11 (designed binder, not shown: small tags and cut ends, FN3 domain; E. coli lysate in the ELISA) LPAPKNLVVSRVTEDSARLSWTAPDAAFDSFWIFYNERWQNGEAIRLTVPGSERSYDLTGLKPGTEYWVLIGGVKGGLKSSPLWAWFTT	164000	1040	1440
ISOP121AR5P1D11 (designed binder, not shown: small tags and cut ends, FN3 domain; E. coli lysate in the ELISA) LPAPKNLVVSRVTEDSARLSWEWLEHFDSFLIQYQESEKVGEAIVLTVPGSERSYDLTGLKPGTEYTVSIYGVYQRKVEFHSNPLSAIFTT	393000	640	1040
ISOP194AR9P1H9 (designed binder, not shown: small tags and cut ends, FN3 domain; E. coli lysate in the ELISA) LPAPKNLVVSRVTEDSARLSWEWLEHFDSFQIQYQESEKVGEAIVLTVPGSERSYDLTGLKPGTEYTVSIYGVYQRKVEFHSNPLSAIFTT	2.59e+06	21300	11400
ISOP194AR9P1E8 (designed binder, not shown: small tags and cut ends, FN3 domain; E. coli lysate in the ELISA) LPAPKNLVVSRVTEDSARLSWEWLEHFDSFLIQYQESEKVGEAIVLTIPGSERSYDLTGLKPGTEYTVSIYGVYQRKVEFHSNPLSAIFTT	3.4e+06	6960	67700
ISOP194AR9P1E9 (designed binder, not shown: small tags and cut ends, FN3 domain; E. coli lysate in the ELISA) LPAPKNLVVSRVTEDSARLSWEWLEHFDSFLIQYQESEKVGEAIVLTVPGSERSYDLTGLKPGTEYTVSIYGVYQRKVNFYSNPLSAIFTT	1.97e+07	5520	1600
ISOP194AR9P1F2 (designed binder, not shown: small tags and cut ends, FN3 domain; E. coli lysate in the ELISA) LPAPKNLVISRVTEDSARLSWEWLEHFDSFLIQYQESEKVGEAIVLTVPGSERSYDLTGLKPGTEYTVSIYGVYNRKVNFYSNPLSAIFTT	1.63e+07	1920	7520
ISOP194AR9P1C10 (designed binder, not shown: small tags and cut ends, FN3 domain; E. coli lysate in the ELISA) LPAPKNLVVSRVTEDSARPSWEWLEHFDSFLIQYQESEKVGEAIVLTVPGSERSYDLTGLKPGTEYTVSIYGVYNRKVNFYSNPLSAIFTT	1.39e+07	38200	15000
ISOP194AR9P1C3 (designed binder, not shown: small tags and cut ends, FN3 domain; E. coli lysate in the ELISA) LPAPKNLVVSRVTQNSARLSWEWLEHFDSFLIHYQESEKVGEAIVLTVPGSERSYDLTGLKPGTEYTVSIYGVYQRKVEFHSNPLSAIFTT	3.55e+06	56400	5920
ISOP121AR5P1G6 (designed binder, not shown: small tags and cut ends, FN3 domain; E. coli lysate in the ELISA) LPAPKNLVVSRVTEDSARLSWHATFGDPFDSFLIQYQESEKVGEAIVLTVPGSERSYDLTGLKPGTEYTVSIYGVGRHYTVYDSNPLSAIFTT	17000	1200	880
ISOP121BR5P1D6 (designed binder, not shown: small tags and cut ends, FN3 domain; E. coli lysate in the ELISA) LPAPKNLVVSRVTEDSARLSWKQGTSFHFDSFLIQYQESEKVGEAIVLTVPGSERSYDLTGLKPGTEYTVSIYGVQLLANDIISSNPLSAIFTT	2.44e+06	560	880
ISOP194AR9P1C5 (designed binder, not shown: small tags and cut ends, FN3 domain; E. coli lysate in the ELISA) LPAPKNLVVSRVTEDSARLSWLRDFNGRAFFDSFLIQYQESEKVGEAIVLTVPGSERSYDPTGLKPGTEYTVSIYGVFITWIHVRSNPLSAIFTT	4.37e+06	3440	1040
ISOP194ER9P1A11 (designed binder, not shown: small tags and cut ends, FN3 domain; E. coli lysate in the ELISA) LPAPKNLVVSRVTEDSARLSWTAPDAAFDSFRIAYYETMVSGEAIVLTVPGSERSYDLTGLKPGTEYAVIIKGVKGGKPSWPLSAIFTT	4.35e+06	800	880
ISOP194ER9P1G3 (designed binder, not shown: small tags and cut ends, FN3 domain; E. coli lysate in the ELISA) LPAPKNLIVSRVTEDSARLSWTAPDAAFDSFRIAYYETMVSGEAIVLTVPGSERSYDLTGLKPGTEYAVIIKGVKGGKPSWPLSAIFTT	4.29e+06	560	720
ISOP194ER9P1H9 (designed binder, not shown: small tags and cut ends, FN3 domain; E. coli lysate in the ELISA) LPAPKNLVVSRVTEDSARLSWTAPDAAFDSFRIAYYETMVSGEAIVLTVPGSERSYDLTGPKPGTEYAVIIKGVKGGKPSWPLSAIFTT	3.04e+06	720	880
ISOP194ER9P1A3 (designed binder, not shown: small tags and cut ends, FN3 domain; E. coli lysate in the ELISA) LPAPKNLVVSRVTEDSARLSWTAPDAAFDSFRIAYYETMVSGEAIVLTVPGSERSYDLTGLKPGTEYAVIIKGVKGGMVSWPLSAIFTT	2.36e+06	560	800
ISOP121BR5P1A7 (designed binder, not shown: small tags and cut ends, FN3 domain; E. coli lysate in the ELISA) LPAPKNLVVSRVTEDSARLSWTTAFHNEYFDSFLIQYQESEKVGEAIVLTVPGSERSYDLTGLKPGTEYTVSIYGVYSRPKAEFTSNPLSAIFTT	389000	800	1120
ISOP194BR9P1H4 (designed binder, not shown: small tags and cut ends, FN3 domain; E. coli lysate in the ELISA) LPAPKNLVVSRVTEDSACLSWTTAFHNEYFDSFLIQYQESEKVGEAIVLTVPGSERSYDLTGLKPGTEYTVSIYGVYSRPKAEFTSNPLSAIFTT	4.06e+06	3040	3840
ISOP194BR9P1G9 (designed binder, not shown: small tags and cut ends, FN3 domain; E. coli lysate in the ELISA) LPAPKNLVVSRVTEDSARLSWTTAFHNEYFDSFLIQYQESEKVGEAIVLTVPGSERSYDLTGLKPGTEYTVSIYGVYIRVQVLWFSNPLSAIFTT	1.44e+07	640	960
ISOP194BR9P1E4 (designed binder, not shown: small tags and cut ends, FN3 domain; E. coli lysate in the ELISA) LPAPKNLVVSRVTEDSARLSWTTAFHNEYFDSFLIQYQESEKVGEAIVLTVPGSERSYDLTGLKPGTEYTVSIYGVYQRGYHNWFSNPLSAIFTT	9.79e+06	640	1440
ISOP194BR9P1D1 (designed binder, not shown: small tags and cut ends, FN3 domain; E. coli lysate in the ELISA) LPAPKNLVVSRVTEDSARLSWEHSLLNDQWFDSFLIQYQESEKVGEAIVLTVPGSERSYDLTGLKPGTEYTVSIYGVYQRGRALWYSNPLSAIFTT	2.15e+06	1360	1280
ISOP194BR9P1F7 (designed binder, not shown: small tags and cut ends, FN3 domain; E. coli lysate in the ELISA) LPAPKNLVVSRVTEDSARLSWFNADEEYFDSFLIQYQESEKVGEAIVLTVPGSERSYDLTGLKPGTEYTVSIYGVYTRGRYEWRESNPLSAIFTT	1.52e+07	1920	1760
ISOP194AR9P1D8 (designed binder, not shown: small tags and cut ends, FN3 domain; E. coli lysate in the ELISA) LPAPKNLVVSRVTEDSARLSWDTWNDFFDSFLIQYQESEKVGEAIVLTVPGSERSYDLTGLKPGTEYTVSIYGVYQRKVIWLSNPLSAIFTT	923000	12000	6560
